Experimental data published in US7566453B2, “Methods for treating melanomas” (Chugai Seiyaku Kabushiki Kaisha, priority 1998, dated 2009).

Target: T1, human IL-6 receptor (Homo sapiens, UniProt P08887)
T1 sequence (P08887 20-468): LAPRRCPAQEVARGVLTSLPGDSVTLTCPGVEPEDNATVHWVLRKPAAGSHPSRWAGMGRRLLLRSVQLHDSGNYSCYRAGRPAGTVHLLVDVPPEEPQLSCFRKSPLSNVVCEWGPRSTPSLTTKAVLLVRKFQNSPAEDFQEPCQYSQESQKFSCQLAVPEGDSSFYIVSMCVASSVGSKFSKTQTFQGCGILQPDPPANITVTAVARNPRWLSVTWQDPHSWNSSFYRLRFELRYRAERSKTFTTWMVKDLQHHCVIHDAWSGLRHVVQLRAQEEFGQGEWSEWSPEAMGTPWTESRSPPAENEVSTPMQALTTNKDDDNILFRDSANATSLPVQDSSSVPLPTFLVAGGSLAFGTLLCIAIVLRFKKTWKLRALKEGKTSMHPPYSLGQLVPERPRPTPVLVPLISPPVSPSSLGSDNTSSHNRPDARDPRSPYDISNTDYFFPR
Assay: ELISA of binding to human IL-6 receptor
Source text: In order to express genes of L chain and H chain of the reshaped human PM-1 antibody thus constructed, DNA encoding the L chain or the H chain was separately inserted into a vector containing the human elongation factor 1α (HEF-1α) promoter, and a vector expressing the L chain or the H chain of the reshaped human PM-1 (hPM-1) antibody was constructed. By simultaneously inserting these two expression vectors into CHO cells, a cell line that produces reshaped human PM-1 antibody (hPM-1) was established.

hPM-1: reshaped human PM-1 antibody: CDRs of mouse anti-IL-6 receptor antibody PM-1 grafted to human antibody, produced in CHO cells
ability to bind to human IL-6 receptor: confirmed by ELISA
